# Assay results published in patent publication US20200199241A1.
# Target: FcγRIIb (human) (UniProt P31994)
# Experiment: SPR (Biacore)
# Sequence of FcγRIIb (human) (P31994 43-217 limits assumed): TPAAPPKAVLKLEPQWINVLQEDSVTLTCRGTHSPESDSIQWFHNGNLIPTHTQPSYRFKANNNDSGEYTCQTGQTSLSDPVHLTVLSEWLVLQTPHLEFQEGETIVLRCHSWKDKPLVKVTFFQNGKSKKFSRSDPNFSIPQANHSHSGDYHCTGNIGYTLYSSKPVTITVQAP
row,relative binding activity (% of GpH7-B3/GpL16-k0),Substance
1,8,GpH7-B3 variant E269H/GpL16-k0 (antibody)
2,9,GpH7-B3 variant E269I/GpL16-k0 (antibody)

# Target: human FcγRIIIa(F) (human) (UniProt P08637)
# Experiment: SPR (Biacore)
# Sequence of human FcγRIIIa(F) (human) (P08637 other isoform, or with tags, fused parts or gaps limits assumed): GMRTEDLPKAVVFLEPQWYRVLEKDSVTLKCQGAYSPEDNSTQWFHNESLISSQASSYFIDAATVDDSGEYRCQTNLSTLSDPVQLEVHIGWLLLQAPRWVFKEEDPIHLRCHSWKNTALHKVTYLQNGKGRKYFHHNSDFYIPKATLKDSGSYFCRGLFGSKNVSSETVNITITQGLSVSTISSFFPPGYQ
row,relative binding activity (% of GpH7-B3/GpL16-k0),Substance
1,9,GpH7-B3 variant E269W/GpL16-k0 (antibody)

# Target: human FcγRIIa(H) (human) (UniProt P12318)
# Sequence (P12318 other isoform, or with tags, fused parts or gaps limits assumed): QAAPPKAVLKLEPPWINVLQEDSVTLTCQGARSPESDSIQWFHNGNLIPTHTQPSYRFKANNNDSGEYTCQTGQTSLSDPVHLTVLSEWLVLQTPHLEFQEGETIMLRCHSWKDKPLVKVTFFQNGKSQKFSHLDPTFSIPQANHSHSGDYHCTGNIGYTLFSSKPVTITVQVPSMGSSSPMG
# Experiment: SPR (Biacore)
row,relative binding activity (% of GpH7-B3/GpL16-k0),Substance
1,9,GpH7-B3 variant S239W/GpL16-k0 (antibody)
2,9,GpH7-B3 variant G237A/GpL16-k0 (antibody)
3,8,GpH7-B3 variant V266F/GpL16-k0 (antibody)

# Target: human FcγRIIa(R) (human) (UniProt P12318)
# Sequence (P12318 other isoform, or with tags, fused parts or gaps limits assumed): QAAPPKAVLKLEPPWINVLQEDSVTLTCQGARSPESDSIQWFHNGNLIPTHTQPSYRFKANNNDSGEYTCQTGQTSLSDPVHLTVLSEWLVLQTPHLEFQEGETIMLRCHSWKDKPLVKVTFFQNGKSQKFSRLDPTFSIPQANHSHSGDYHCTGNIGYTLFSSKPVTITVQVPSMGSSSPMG
# Experiment: SPR (Biacore)
row,Substance,relative binding activity (% of GpH7-B3/GpL16-k0)
1,GpH7-B3 variant L234G/GpL16-k0 (antibody),9
2,GpH7-B3 variant G237P/GpL16-k0 (antibody),8

# Next, values leading:
row,relative binding activity (% of GpH7-B3/GpL16-k0),Substance
1,9,GpH7-B3 variant G236K/GpL16-k0 (antibody)
2,8,GpH7-B3 variant S239R/GpL16-k0 (antibody)

# Target: FcγRIIb (human) (UniProt P31994)
# Experiment: SPR, captured antibody
row,relative binding activity (% of GpH7-B3/GpL16-k0),Substance
1,9,GpH7-B3 S298W/GpL16-k0 (antibody)

# Target: human FcγRIIIa(F) (human) (UniProt P08637)
# Experiment: SPR, captured antibody
row,Substance,relative binding activity (% of GpH7-B3/GpL16-k0)
1,GpH7-B3 Y296G/GpL16-k0 (antibody),21
2,GpH7-B3 S298P/GpL16-k0 (antibody),0
3,GpH7-B3 Q295Y/GpL16-k0 (antibody),49
4,GpH7-B3 Y296P/GpL16-k0 (antibody),8
5,GpH7-B3 S298K/GpL16-k0 (antibody),25
6,GpH7-B3 S298Y/GpL16-k0 (antibody),71
7,GpH7-B3 S324K/GpL16-k0 (antibody),74
8,GpH7-B3 Y296R/GpL16-k0 (antibody),38

# Continued, values first:
row,relative binding activity (% of GpH7-B3/GpL16-k0),Substance
1,10,GpH7-B3 Q295W/GpL16-k0 (antibody)
2,35,GpH7-B3 Y300K/GpL16-k0 (antibody)
3,20,GpH7-B3 S298R/GpL16-k0 (antibody)
4,59,GpH7-B3 S298G/GpL16-k0 (antibody)
5,21,GpH7-B3 Y296K/GpL16-k0 (antibody)
6,11,GpH7-B3 S298W/GpL16-k0 (antibody)
7,35,GpH7-B3 S324P/GpL16-k0 (antibody)
8,-1,GpH7-B3 Y300P/GpL16-k0 (antibody)
9,12,GpH7-B3 Y300R/GpL16-k0 (antibody)
